In patent publication US20240084044A1, “Heteromultivalent Nucleic Acid Scaffolds and Uses Thereof” (George Mason University, priority 2022, published 2024):
Each block holds one molecule with its values, some of them ahead of it. Bridges are numbered along the chain shown (N, C = ends). Roman numbers before positions name the chains, in order. [ ]: non-standard residue; d: D form. Lys(N3) = [N-]=[N+]=NCCCC[C@H](N)C(=O)O

What was measured:
[1] = biological target: ST2/IL-33 binary complex (recombinant FLAG-tagged ST2 extracellular domain with recombinant mature IL-33) (UniProt Q01638); assay: SPR (OpenSPR), FLAG-ST2 captured on anti-FLAG mAb and loaded with 50 nM IL-33, IL1RAcP as analyte, 1:1 fit; native IL-1RAcP as analyte
[2] = biological target: T1, ST2/IL-33 binary complex (Homo sapiens, UniProt O95760+Q01638); assay: SPR dissociation constant for the ST2/IL-33 binary complex; assay type: binding; settings: SPR, 1:1 fit; read-out: KD to the binary ST2/IL-33 complex
T1 construct: included the extracellular domains, K19-F328 and S21-E359, respectively; the cleaved mature proteins, S112-T270, A117-S269, and R2-S310, respectively; purchased Sino Biologicals ST2 10105-HCCH; IL-33 10368-HNAE; host or cells: ST2: HEK293; IL-33: E. coli
T1 sequence (Q01638 19-328 isoform Q01638-2): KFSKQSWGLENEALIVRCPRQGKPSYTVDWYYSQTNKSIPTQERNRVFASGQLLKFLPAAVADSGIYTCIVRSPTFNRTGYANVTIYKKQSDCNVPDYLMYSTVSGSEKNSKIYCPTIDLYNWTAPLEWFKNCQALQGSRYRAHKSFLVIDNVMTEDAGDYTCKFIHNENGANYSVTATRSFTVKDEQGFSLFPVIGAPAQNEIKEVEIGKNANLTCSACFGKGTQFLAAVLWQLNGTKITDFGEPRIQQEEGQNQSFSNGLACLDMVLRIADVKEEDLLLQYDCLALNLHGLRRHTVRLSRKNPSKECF
T1 sequence (O95760 112-270): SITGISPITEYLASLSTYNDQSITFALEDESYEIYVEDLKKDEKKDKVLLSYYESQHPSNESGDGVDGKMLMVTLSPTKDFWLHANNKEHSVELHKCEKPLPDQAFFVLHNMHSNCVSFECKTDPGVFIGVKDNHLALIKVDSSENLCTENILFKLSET
Text: Recombinant ST2 with truncated FLAG (DDDDK) tag (Cat. #10105-HCCH), His-tagged IL1RAcP (Cat. #10121-H08H), IL-33 (Cat. #10368-HNAE), IL-1β (Cat. #10139-HNAE), and FLAG-tagged SIRT5 (Cat. #19202-H22E) were purchased from Sino Biologicals (Wayne, PA). ST2 and IL1RAcP were expressed in HEK293 cells and included the extracellular domains, K19-F328 and S21-E359, respectively. IL-33, IL-1β, and SIRT5 were expressed in E. coli and included the residue sequence of the cleaved mature proteins, S112-T270, A117-S269, and R2-S310, respectively. Lyophilized ST2, and IL1RAcP were reconstituted in ultrapure (18.5 MΩ) water to a concentration of 0.5 mg/mL (5.6 μM) and stored at −80° C. until use. SIRT5 was reconstituted to 0.2 mg/mL (2.87 μM). To prevent oxidation, IL-33 was reconstituted in 10 mM β-mercaptoethanol (Sigma-Aldrich) to a concentration of 0.1 mg/mL and IL-1β was reconstituted to 0.250 mg/mL. All peptides were purchased from Peptide 2.0 (Chantilly, VA) and designed based on IL1RAcP hotspot residues known to interact with IL-33/ST2 and surrounding residues based on the canonical sequence of IL1RAcP (Uniprot #Q9NPH3). All peptides were modified with acetylated N-terms and amidated C-terms to optimize stability and cyclic peptides cyclized via thioether or disulfide bond. Candidate peptides for the final molecule were also modified with an azido-Lysine and additional N-term alanine or cysteine, to provide the azide group for copper free click chemistry and maintain cyclization. Peptides were stored at −20° C. in lyophilized aliquots of 100 μg or 200 μg and −80° C. after reconstitution in sterile DMSO to a concentration of 10 mM.
SPR experiments were carried out on an OpenSPR instrument (Nicoya). Gold nanoparticle sensor chips (Nicoya) were functionalized by incubation in a solution of ethanol and 10 mM 11-Mercaptoundecanoic acid (MUDA) at RT for a minimum of 48 h, then stored in ethanol at 4° C. until use. Chips were activated with a solution of 200 mM EDC and 50 mM NHS for 3 m at RT. […] Data was analyzed with TraceDrawer software to a 1:1 fit model.

[3] = biological target: ST2/IL-33 binary complex (recombinant FLAG-tagged ST2 extracellular domain with recombinant mature IL-33) (UniProt Q01638); assay: SPR (OpenSPR): FLAG-ST2 captured on anti-FLAG mAb and loaded with IL-33, peptide as analyte, 1:1 fit; five sensorgrams, the highest to about 300 RU
[4] = biological target: ST2/IL-33 binary complex (recombinant FLAG-tagged ST2 extracellular domain with recombinant mature IL-33) (UniProt Q01638); assay: SPR (OpenSPR): FLAG-ST2 captured on anti-FLAG mAb and loaded with IL-33, peptide as analyte, 1:1 fit; five sensorgrams, the highest to about 390 RU
[5] = biological target: ST2/IL-33 binary complex (recombinant FLAG-tagged ST2 extracellular domain with recombinant mature IL-33) (UniProt Q01638); assay: SPR (OpenSPR): FLAG-ST2 captured on anti-FLAG mAb and loaded with IL-33, peptide as analyte, 1:1 fit; five sensorgrams, the highest to about 350 RU
[6] = biological target: T2, ST2 (Homo sapiens, UniProt Q01638); settings: reported value; read-out: Kd of ST2/IL-33 binary complex; cited from earlier work
T2 sequence (Q01638 19-556): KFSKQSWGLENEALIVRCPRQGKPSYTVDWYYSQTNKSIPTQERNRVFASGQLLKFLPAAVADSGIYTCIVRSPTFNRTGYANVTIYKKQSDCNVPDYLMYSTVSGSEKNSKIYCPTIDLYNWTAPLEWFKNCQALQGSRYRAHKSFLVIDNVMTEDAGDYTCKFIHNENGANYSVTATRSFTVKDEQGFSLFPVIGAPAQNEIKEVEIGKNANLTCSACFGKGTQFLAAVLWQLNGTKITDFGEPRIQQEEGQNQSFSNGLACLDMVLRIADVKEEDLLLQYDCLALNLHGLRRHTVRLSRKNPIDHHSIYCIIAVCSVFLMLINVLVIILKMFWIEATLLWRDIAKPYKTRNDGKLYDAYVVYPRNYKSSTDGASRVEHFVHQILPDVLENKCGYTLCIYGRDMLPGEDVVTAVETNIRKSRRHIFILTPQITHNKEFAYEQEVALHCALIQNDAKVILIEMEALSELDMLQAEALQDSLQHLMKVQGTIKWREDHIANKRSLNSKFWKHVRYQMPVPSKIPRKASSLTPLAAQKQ

[7] = biological target: ST2/IL-33 binary complex (recombinant FLAG-tagged ST2 extracellular domain with recombinant mature IL-33) (UniProt Q01638); assay: DSS cross-linking and western blot, 1 µM MSTOP, competitor IL-1RAcP
[8] = biological target: T3, IL-33/ST2 on HEK-Blue IL-33 reporter cells (recombinant IL-33 with ST2 stably expressed on the cells), Q01638; assay: cell-based or functional assay
T3 chain 1: T2 sequence (Q01638 19-556)
T3 chain 2: T1 sequence (O95760 112-270)

[9] = biological target: ST2/IL-33 binary complex (recombinant FLAG-tagged ST2 extracellular domain with recombinant mature IL-33) (UniProt Q01638); assay: SPR (OpenSPR), FLAG-ST2 captured on anti-FLAG mAb and loaded with IL-33, MSTOP as analyte, 1:1 fit; MSTOP as analyte
[10] = biological target: ST2/IL-33 binary complex (recombinant FLAG-tagged ST2 extracellular domain with recombinant mature IL-33) (UniProt Q01638); assay: SPR (OpenSPR), KD compared
[11] = biological target: ST2/IL-33 binary complex (recombinant FLAG-tagged ST2 extracellular domain with recombinant mature IL-33) (UniProt Q01638); assay: DSS cross-linking and western blot, 100 nM MSTOP compared with 10 µM free WT peptides, competitor IL-1RAcP
[12] = biological target: ST2/IL-33 binary complex (recombinant FLAG-tagged ST2 extracellular domain with recombinant mature IL-33) (UniProt Q01638); assay: DSS cross-linking and western blot, 10 µM MSTOP, competitor IL-1RAcP, normalised to the untreated trimer control
[13] = biological target: ST2/IL-33 binary complex (recombinant FLAG-tagged ST2 extracellular domain with recombinant mature IL-33) (UniProt Q01638); assay: SPR (OpenSPR): FLAG-ST2 captured on anti-FLAG mAb and loaded with IL-33, MSTOP as analyte, 1:1 fit; sensorgrams to about 620 RU. The text gives 195 nM.

Kd [1]: 10 µM
Molecule: His-tagged IL1RAcP extracellular domain (S21-E359) (from UniProt Q9NPH3 21-359) (receptor)

Kd [2]: 10 µM
Molecule: IL-1RAcP: recombinant His-tagged IL-1 receptor accessory protein extracellular domain S21-E359

Kd [4]: 47 µM
B2: K343/K346 Ac-C-K(N3)-…-NH2 (S-S) (peptide)
peptide: Ac-C[Lys(N3)]GEVAKAAKVKC-NH2
modifications: disulfide 1-13
SMILES: CC(=O)N[C@H]1CSSC[C@@H](C(N)=O)NC(=O)[C@H](CCCCN)NC(=O)[C@H](C(C)C)NC(=O)[C@H](CCCCN)NC(=O)[C@H](C)NC(=O)[C@H](C)NC(=O)[C@H](CCCCN)NC(=O)[C@H](C)NC(=O)[C@H](C(C)C)NC(=O)[C@H](CCC(=O)O)NC(=O)CNC(=O)[C@H](CCCCN=[N+]=[N-])NC1=O

reduction of trimer formation [7]: 40%
IL-33 induced SEAP expression (HEK-Blue IL-33 reporter cells, 1 µM MSTOP) [8]: 40 % reduction
Kd [9]: 0.195 µM
fold increase in affinity compared to the individual peptides and IL-1RAcP [10]: 100 fold
fold increase in efficiency against the 10 µM WT peptide treatment [11]: 100 fold
reduction in trimer formation [12]: 70%
Kd [13]: 0.127 µM
B5: MSTOP prototype (Multivalent Specific Topology-targeting DNA-Origami Peptide Inhibitor): 3-way junction DNA scaffold carrying three cyclized azidolysine … (designed binder)
peptide 1: Ac-CKEYGIQRITC-NH2
peptide 2: Ac-AKVGSPKNAVPPC-NH2
peptide 3: Ac-CKGEVAKAAKVKC-NH2
modifications: disulfide I:1-I:11, III:1-III:13; thioether II:1-II:13; not fully specified (some residues); also: three peptides held on a 3-way junction DNA scaffold via DBCO staple strands

The next lines start with the molecule.

B1: R157 Ac-C-K(N3)-…-NH2 (S-S) (peptide)
peptide: Ac-C[Lys(N3)]EYGIQRITC-NH2
modifications: disulfide 1-11
SMILES: CC[C@H](C)[C@@H]1NC(=O)CNC(=O)[C@H](Cc2ccc(O)cc2)NC(=O)[C@H](CCC(=O)O)NC(=O)[C@H](CCCCN=[N+]=[N-])NC(=O)[C@@H](NC(C)=O)CSSC[C@@H](C(N)=O)NC(=O)[C@H]([C@@H](C)O)NC(=O)[C@H]([C@@H](C)CC)NC(=O)[C@H](CCCNC(=N)N)NC(=O)[C@H](CCC(N)=O)NC1=O
Kd [3]: 57 µM

B3: K238 Ac-A-K(N3)-…-NH2 (S) (peptide)
peptide: Ac-A[Lys(N3)]VGSPKNAVPPC-NH2
modifications: thioether 1-13
SMILES: CC(=O)N[C@H]1CSC[C@@H](C(N)=O)NC(=O)[C@@H]2CCCN2C(=O)[C@@H]2CCCN2C(=O)[C@H](C(C)C)NC(=O)[C@H](C)NC(=O)[C@H](CC(N)=O)NC(=O)[C@H](CCCCN)NC(=O)[C@@H]2CCCN2C(=O)[C@H](CO)NC(=O)CNC(=O)[C@H](C(C)C)NC(=O)[C@H](CCCCN=[N+]=[N-])NC1=O
Kd [5]: 105 µM

B4: IL-33: recombinant interleukin-33 cytokine, ligand of ST2 (protein, UniProt O95760 1-270, looked up)
Interleukin-33: MKPKMKYSTNKISTAKWKNTASKALCFKLGKSQQKAKEVCPMYFMKLRSGLMIKKEACYFRRETTKRPSLKTGRKHKRHLVLAACQQQSTVECFAFGISGVQKYTRALHDSSITGISPITEYLASLSTYNDQSITFALEDESYEIYVEDLKKDEKKDKVLLSYYESQHPSNESGDGVDGKMLMVTLSPTKDFWLHANNKEHSVELHKCEKPLPDQAFFVLHNMHSNCVSFECKTDPGVFIGVKDNHLALIKVDSSENLCTENILFKLSET
Kd [6]: 0.026 nM
